Target: T1, heme-bound REV-ERBβ LBD (Homo sapiens, UniProt Q14995)
T1 construct: The human REV-ERBβ LBD (residues 381 to 579) was previously cloned; 6xHis with 3C protease cleavage site (N, cleaved yes); made in house; host or cells: E. coli BL21(DE3)
T1 sequence (Q14995 381-579): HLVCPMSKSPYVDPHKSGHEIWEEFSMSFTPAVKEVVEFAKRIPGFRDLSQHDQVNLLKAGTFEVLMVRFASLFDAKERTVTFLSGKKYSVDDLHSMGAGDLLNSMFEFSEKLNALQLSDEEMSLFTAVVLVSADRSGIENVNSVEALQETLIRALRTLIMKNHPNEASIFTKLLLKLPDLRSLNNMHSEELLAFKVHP
Assay: ITC, NCoR RID constructs with heme-bound REV-ERBβ LBD
Format: binding
Experimental: Human REV-ERBβ LBD was expressed in BL21(DE3) Escherichia coli cells with an N-terminal hexahistidine (6xHis) tag separated by a 3C protease cleavage site. Expression was performed using auto-induction media: Cells were grown at 37°C for 5 hours, 30°C for 1 hour, and 18°C for 16 hours before harvesting by centrifugation. Pellets were resuspended in potassium phosphate lysis buffer [40 mM potassium phosphate (pH 7.4), 500 mM KCl, 15 mM imidazole, and 1 mM dithiothreitol (DTT)] supplemented with leupeptin, pepstatin A, lysozyme, and deoxyribonuclease (DNase) I and sonicated on ice. […] A 5-ml aliquot of 6xHis-tagged protein was purified by size exclusion chromatography using a Superdex 75 column equilibrated in time-resolved fluorescence energy transfer (TR-FRET) assay buffer [20 mM potassium phosphate (pH 7.4), 50 mM KCl, and 0.5 mM EDTA]; purified aliquots were stored at −80°C for TR-FRET assays. To cleave the 6xHis tag from the remaining protein, it was incubated overnight with 3C protease (generated in-house) via dialysis; then, protein was reloaded onto the HisTrap columns, and the flow-through was collected. Last, aggregates were removed by size exclusion chromatography using a Superdex 75 column and Hepes gel filtration buffer [20 mM Hepes (pH 7.4), 50 mM KCl, and 0.5 mM EDTA]. Greater than 95% purity was confirmed by SDS-PAGE. Protein was aliquoted and stored at −80°C.
ITC experiments were performed using a MicroCal iTC200. All experiments were solvent-matched and contained 0.1% DMSO (peptide vehicle) and 0.2% 0.2 M solution of NaOH (heme vehicle) final concentrations. NITPIC software ([37]) was used to calculate baselines and integrate curves and prepare experimental data for fitting in SEDPHAT, which was used to generate final binding affinity and thermodynamic parameter measurements ([38]).Final figures were exported to GUSSI for publication-quality figure preparation ([39]).
NCoR RID constructs (WT, ΔID1, ΔID2, or ΔID1ΔID2) were prepared in assay buffer at 15 μM, and REV-ERBβ LBD was prepared at 300 μM. REV-ERBβ LBD in the syringe was titrated into the RID in the sample cell as described above, with the exception that a total of 4 molar equivalents were titrated over 20 injections. […] For apo LBD into WT RID, data were fit to A + B ↔ AB + B ↔ BA + A ↔ BAB, with two nonsymmetric sites, microscopic K model in SEDPHAT. For apo LBD into ΔID2, data were fit to an A + B ↔ AB hetero-association model in SEDPHAT. For heme-bound LBD into WT RID, data were fit to an A + B ↔ AB hetero-association model in SEDPHAT.
NCoR RID constructs (including WT, ΔID1, ΔID2, and ΔID1ΔID2) were transformed into BL21(DE3) E. coli cells, which were grown in 2 liters of Terrific Broth media [yeast extract (24 g/liter), tryptone (12 g/liter), KH2PO4 ([…]), K2HPO4 ([…]), and glycerol (4 ml/liter)] at 37°C until OD600 reached 0.7 to 0.8. Expression was induced with 0.75 mM IPTG for 2 hours at 37°C before cells were harvested by centrifugation. Pellets were washed 1× with phosphate-buffered saline and stored at −80°C until purification. Pellets were resuspended on ice in Hepes lysis buffer [25 mM Hepes (pH 7.4), 150 mM NaCl, 2 M urea, and 15 mM imidazole] supplemented with 1 mM DTT, pepstatin A, leupeptin, lysozyme, DNase I, phenylmethylsulfonyl fluoride, and 0.1% Tween 20, and cell slurry was sonicated on ice. […]

[1] = +Heme LBD, WT RID, 25°C, A + B ↔ AB model, 95% CI

TΔS [1]: 11.2 kcal/mol | ΔG [1]: -9.6 kcal/mol | ΔH [1]: 1.7 kcal/mol | Kd (+Heme LBD, WT RID, LBD 300 μM into 15 μM RID, pH 7.4, 25°C, A + B ↔ AB hetero-association model, 95% CI): 99 nM | RID binding to heme-bound LBD (in words) (heme-bound LBD, RID mutants and WT): must involve positive cooperativity
B1: WT RID: mouse NCoR RID (residues 1942 to 2208 in the X50 splice variant) (protein, UniProt Q60974 1942-2208, looked up, fragment)
chain: TITAANFIDVIITRQIASDKDARERGSQSSDSSSSLSSHRYETASDAIEVISPASSPAPPQEKPQAYQPDMVKANQAENESTRQYEGPLHHYRSQQESPSPQQQPPLPPSSQSEGMGQVPRTHRLITLADHICQIITQDFARNQVPSQASTSTFQTSPSALSSTPVRTKTSSRYSPESQSQTVLHPRPGPRVSPENLVDKSRGSRPGKSPERSHIPSEPYEPISPPQGPAVHEKQDSMLLLSQRGVDPAEQRSDSRSPGSISYLPSF
modifications: X50 splice variant

Reference: paper PMC7840129, “Structural basis for heme-dependent NCoR binding to the transcriptional repressor REV-ERBβ” (Science Advances, 2021)
